{
  "source": "patent US20220289850",
  "about": "(published 2022)",
  "binders": {"B1": {"name": "ADWA11 2.4 IgG (antibody)", "chain 1": "EVQLVESGGGLVQPGGSLRLSCAASGFNIKDYYMNWVRQAPGKGLEWVGWIDPDQGNTIYEPKFQGRFTISADTSKNSAYLQMNSLRAEDTAVYYCARRLLMDYWGQGTLVTVSSASTKGPSVFPLAPSSKSTSGGTAALGCLVKDYFPEPVTVSWNSGALTSGVHTFPAVLQSSGLYSLSSVVTVPSSSLGTQTYICNVNHKPSNTKVDKKVEPKSCDKTHTCPPCPAPEAAGAPSVFLFPPKPKDTLMISRTPEVTCVVVDVSHEDPEVKFNWYVDGVEVHNAKTKPREEQYNSTYRVVSVLTVLHQDWLNGKEYKCKVSNKALPAPIEKTISKAKGQPREPQVYTLPPSREEMTKNQVSLTCLVKGFYPSDIAVEWESNGQPENNYKTTPPVLDSDGSFFLYSKLTVDKSRWQQGNVFSCSVMHEALHNHYTQKSLSLSPGK", "chain 2": "DIQMTQSPSSLSASVGDRVTITCRSTKSLSHFNGNTYLFWYQQKPGKAPKRLIYYMSSLASGVPSRFSGSGSGTDFTLTISSLQPEDFATYYCQQSLEYPFTFGGGTKVEIKRTVAAPSVFIFPPSDEQLKSGTASVVCLLNNFYPREAKVQWKVDNALQSGNSQESVTEQDSKDSTYSLSSTLTLSKADYEKHKVYACEVTHQGLSSPVTKSFNRGEC"}},
  "biological_target": "T1, human integrin avb6 (human, UniProt P06756)",
  "T1 chain 1": "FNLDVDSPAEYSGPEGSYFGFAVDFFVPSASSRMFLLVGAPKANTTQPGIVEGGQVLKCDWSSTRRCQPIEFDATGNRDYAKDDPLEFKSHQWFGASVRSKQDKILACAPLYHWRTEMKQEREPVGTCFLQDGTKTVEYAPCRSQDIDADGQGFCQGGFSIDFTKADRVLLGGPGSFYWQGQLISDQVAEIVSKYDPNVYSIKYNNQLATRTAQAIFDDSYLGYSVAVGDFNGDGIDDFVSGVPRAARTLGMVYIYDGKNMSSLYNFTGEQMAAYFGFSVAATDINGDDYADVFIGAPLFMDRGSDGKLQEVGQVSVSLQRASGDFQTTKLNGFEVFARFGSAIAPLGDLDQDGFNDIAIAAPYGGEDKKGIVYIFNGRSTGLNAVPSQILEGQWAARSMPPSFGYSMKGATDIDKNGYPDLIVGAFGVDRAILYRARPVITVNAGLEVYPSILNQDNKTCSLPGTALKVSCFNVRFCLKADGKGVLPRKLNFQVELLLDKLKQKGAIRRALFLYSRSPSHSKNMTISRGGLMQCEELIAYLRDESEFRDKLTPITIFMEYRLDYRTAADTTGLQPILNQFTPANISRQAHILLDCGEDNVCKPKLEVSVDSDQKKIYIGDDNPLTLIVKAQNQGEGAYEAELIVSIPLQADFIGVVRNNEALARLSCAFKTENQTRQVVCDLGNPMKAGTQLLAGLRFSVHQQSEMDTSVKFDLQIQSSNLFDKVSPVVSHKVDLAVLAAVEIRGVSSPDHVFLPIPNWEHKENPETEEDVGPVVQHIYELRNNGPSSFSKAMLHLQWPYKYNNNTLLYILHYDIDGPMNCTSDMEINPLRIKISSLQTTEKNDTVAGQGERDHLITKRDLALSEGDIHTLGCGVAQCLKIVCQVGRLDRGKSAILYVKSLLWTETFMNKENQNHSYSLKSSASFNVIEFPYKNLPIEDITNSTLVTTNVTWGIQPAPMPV",
  "T1 chain 2": "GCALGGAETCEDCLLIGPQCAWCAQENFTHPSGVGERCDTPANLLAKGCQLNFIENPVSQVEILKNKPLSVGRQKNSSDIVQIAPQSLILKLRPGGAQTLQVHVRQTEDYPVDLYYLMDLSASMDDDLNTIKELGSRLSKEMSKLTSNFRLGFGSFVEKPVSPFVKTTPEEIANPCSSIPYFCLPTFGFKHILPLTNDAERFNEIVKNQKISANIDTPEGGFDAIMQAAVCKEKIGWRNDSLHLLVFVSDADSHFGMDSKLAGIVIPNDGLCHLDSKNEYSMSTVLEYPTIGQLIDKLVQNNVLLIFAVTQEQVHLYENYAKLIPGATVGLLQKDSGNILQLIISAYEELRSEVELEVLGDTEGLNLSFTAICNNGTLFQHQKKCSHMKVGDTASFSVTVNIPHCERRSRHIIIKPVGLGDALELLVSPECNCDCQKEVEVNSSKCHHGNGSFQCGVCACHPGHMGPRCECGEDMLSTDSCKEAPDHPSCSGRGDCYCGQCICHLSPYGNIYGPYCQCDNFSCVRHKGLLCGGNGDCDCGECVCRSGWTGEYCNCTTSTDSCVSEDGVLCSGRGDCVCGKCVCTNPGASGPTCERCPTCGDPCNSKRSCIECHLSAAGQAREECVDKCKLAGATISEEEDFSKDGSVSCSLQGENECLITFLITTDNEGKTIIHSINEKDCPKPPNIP",
  "assay": "SPR",
  "data": [
    {"binder": "B1", "values": [
      {"measurement": "binding result", "value": "no binding"}
    ]}
  ]
}
